How the values were obtained:
[1] = target: CD44 (HCELL), native glycoprotein from human HSPCs (KG1a, CD34^pos fraction) (human) (UniProt P16070); assay: SPR; CD44 captured from KG1a lysate on Hermes-3-mAb, E-Ig injected, 150 mM NaCl; apparent rate constant; 3rd experiment
[2] = target: T1, CD34, native glycoprotein from human HSPCs (KG1a, CD34^pos-BM, CD34^pos-UCB, CD34^pos-AML) (human, UniProt P28906 32-385, native glycosylation (about 120-130 kDa form); sialylated O-glycans and tyrosine sulfation are shown to matter for selectin binding); assay: SPR; CD34 captured from KG1a lysate on 563-mAb, E-Ig injected, 150 mM NaCl; apparent rate constant; 2nd experiment
T1 construct: mature; also called E-selL CD34
T1 sequence (looked up): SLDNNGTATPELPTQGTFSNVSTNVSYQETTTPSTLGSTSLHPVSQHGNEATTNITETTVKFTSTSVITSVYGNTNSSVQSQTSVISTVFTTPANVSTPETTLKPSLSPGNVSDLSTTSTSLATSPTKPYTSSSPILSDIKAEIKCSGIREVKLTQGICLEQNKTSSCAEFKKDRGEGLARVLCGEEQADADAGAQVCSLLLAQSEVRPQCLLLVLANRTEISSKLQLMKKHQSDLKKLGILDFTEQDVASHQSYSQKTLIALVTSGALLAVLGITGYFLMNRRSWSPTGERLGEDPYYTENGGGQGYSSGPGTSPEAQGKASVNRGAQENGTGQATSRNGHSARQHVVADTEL

[3] = target: CD44 (HCELL), native glycoprotein from human HSPCs (KG1a, CD34^pos fraction) (human) (UniProt P16070); assay: SPR; CD44 captured from KG1a lysate on Hermes-3-mAb, E-Ig injected (3.9-2000 nM), 150 mM NaCl; steady-state model; 1st experiment
[4] = target: T2, CD43, native glycoprotein from KG1a cells (human, UniProt P16150 20-400, native glycosylation); assay: SPR; CD43 captured from KG1a lysate on polyclonal CD43 Ab, E-Ig injected (3.9-2000 nM), 150 mM NaCl; steady-state model; 2nd experiment
T2 construct: mature
T2 sequence (looked up): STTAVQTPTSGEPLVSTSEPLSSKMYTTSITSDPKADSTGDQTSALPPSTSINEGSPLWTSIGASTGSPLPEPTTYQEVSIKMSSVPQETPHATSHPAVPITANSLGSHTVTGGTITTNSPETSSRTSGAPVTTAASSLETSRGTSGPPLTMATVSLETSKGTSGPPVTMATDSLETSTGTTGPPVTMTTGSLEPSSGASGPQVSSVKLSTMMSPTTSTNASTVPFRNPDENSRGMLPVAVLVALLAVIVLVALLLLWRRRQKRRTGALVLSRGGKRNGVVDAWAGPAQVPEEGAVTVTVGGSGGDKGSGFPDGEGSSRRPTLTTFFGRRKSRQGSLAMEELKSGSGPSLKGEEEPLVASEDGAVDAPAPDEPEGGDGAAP

Chain of CD44 (HCELL), native glycoprotein from human HSPCs (KG1a, CD34^pos fraction) (human) (P16070 21-742): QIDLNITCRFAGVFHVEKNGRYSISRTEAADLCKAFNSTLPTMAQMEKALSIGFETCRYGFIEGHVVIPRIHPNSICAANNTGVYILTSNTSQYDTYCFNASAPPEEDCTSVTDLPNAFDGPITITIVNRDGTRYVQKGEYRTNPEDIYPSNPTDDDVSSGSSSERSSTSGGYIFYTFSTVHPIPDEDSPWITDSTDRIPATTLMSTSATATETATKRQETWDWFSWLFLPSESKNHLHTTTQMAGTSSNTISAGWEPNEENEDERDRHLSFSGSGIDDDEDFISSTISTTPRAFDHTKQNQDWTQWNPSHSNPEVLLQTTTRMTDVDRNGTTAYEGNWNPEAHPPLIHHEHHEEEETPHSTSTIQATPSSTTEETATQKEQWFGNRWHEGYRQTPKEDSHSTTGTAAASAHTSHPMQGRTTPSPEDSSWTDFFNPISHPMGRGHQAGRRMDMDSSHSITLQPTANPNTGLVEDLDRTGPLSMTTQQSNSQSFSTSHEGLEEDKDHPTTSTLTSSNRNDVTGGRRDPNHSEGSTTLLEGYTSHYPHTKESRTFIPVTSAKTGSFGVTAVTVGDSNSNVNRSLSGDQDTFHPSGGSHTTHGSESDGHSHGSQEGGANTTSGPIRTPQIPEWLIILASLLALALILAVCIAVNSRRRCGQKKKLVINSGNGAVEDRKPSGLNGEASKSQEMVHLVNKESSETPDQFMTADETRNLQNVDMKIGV

B1: recombinant E-selectin human immunoglobulin chimeric protein (Fc fusion)
chain: WSYNTSTEAMTYDEASAYCQQRYTHLVAIQNKEEIEYLNSILSYSPSYYWIGIRKVNNVWVWVGTQKPLTEEAKNWAPGEPNNRQKDEDCVEIYIKREKDVGMWNDERCSKKKLALCYTAACTNTSCSGHGECVETINNYTCKCDPGFSGLKCEQIVNCTALESPEHGSLVCSHPLGNFSYNSSCSISCDRGYLPSSMETMQCMSSGEWSAPIPACNVVECDAVTNPANGFVECFQNPGSFPWNTTCTFDCEEGFELMGAQSLQCTSSGNWDNEKPTCKAVTCRAVRQPQNGSVRCSHSPAGEFTFKSSCNFTCEEGFMLQGPAQVECTTQGQWTQQIPVCEAFQCTALSNPERGYMNCLPSASGSFRYGSSCEFSCEQGFVLKGSKRLQCGPTGEWDNEKPTCEAVRCDAVHQPPKGLVRCAHSPIGEFTYKSSCAFSCEEGFELHGSTQLECTSQGQWTEEVPSCQVVKCSSLAVPGKINMSCSGEPVFGTVCKFACPEGWTLNGSAARTCGATGHWSGLLPTCEAPTESNIP
[1]
  koff: 0.000273 s⁻¹
  kon: 1280 M⁻¹ s⁻¹
[2]
  koff: 0.00016 s⁻¹
  kon: 597 M⁻¹ s⁻¹
[3]
  Kd: 234 nM
[4]
  Kd: 376 nM

Source: patent publication US20200199533A1 (KING ABDULLAH UNIVERSITY OF SCIENCE AND TECHNOLOGY, published 2020)
